By Kd is commonly meant the constant that tells how readily two partners part at equilibrium.

The target in assay [1] is FITC-β-Ala-β-Ala-RARGG (human). In words: fluorescence polarisation.
Assay [2] deals with FITC-β-Ala-β-Ala-STLGG (human). In words: fluorescence polarisation. Background: In fluorescence polarisation assays a small probe gives low polarisation when free and higher when bound to something large.
Assay [3] concerns the target FITC-β-Ala-β-Ala-ALRGG (human). In words: fluorescence polarisation.
A further assay has as its target FITC-β-Ala-β-Ala-IAKGG. In words: fluorescence polarisation.
Assay [4] concerns the target FITC-β-Ala-β-Ala-RLRGG (human). Kind of assay: fluorescence polarisation.
For the next assay, the target named is FITC-β-Ala-β-Ala-LQDGF. In words: fluorescence polarisation.
A further assay deals with FITC-β-Ala-β-Ala-NALGG. In words: fluorescence polarisation.
Another assay deals with FITC-β-Ala-β-Ala-FDGFM. Kind of assay: fluorescence polarisation.
Assay [5] has as its target FITC-β-Ala-β-Ala-RGMGG (human). Kind of assay: fluorescence polarisation.
For assay [6], the target named is FITC-β-Ala-β-Ala-YGFGG (human). Kind of assay: fluorescence polarisation.
Assay [7] deals with GST (Schistosoma japonicum) [GST: P08515]. Conditions: cited from earlier work.
Assay [8] addresses ubiquitin C-terminal five-residue peptide (Homo sapiens). As to conditions: cited from earlier work.
The next assay addresses ubiquitin (Homo sapiens) (UniProt P0CG48). Conditions: cited from earlier work.

Chain of Ubp-M BUZ (Q9Y5T5 22-142): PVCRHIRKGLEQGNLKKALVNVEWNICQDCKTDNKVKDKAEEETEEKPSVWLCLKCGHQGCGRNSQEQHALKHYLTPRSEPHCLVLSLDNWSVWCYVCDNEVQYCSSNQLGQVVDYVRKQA
Chain of HDAC6 BUZ (Q9UBN7 1111-1209): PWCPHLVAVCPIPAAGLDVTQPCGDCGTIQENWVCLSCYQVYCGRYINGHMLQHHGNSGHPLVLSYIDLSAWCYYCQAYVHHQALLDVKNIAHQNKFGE

Take “GST-HDAC6 BUZ (from UniProt Q9UBN7 1059-1215) (domain or fragment)”: the Kd in [1] was 0.47 µM; in [2], 3.7 µM; in [3], 2.5 µM; with FITC-β-Ala-β-Ala-IAKGG, 8.8 µM; in [4], 0.34 µM; with FITC-β-Ala-β-Ala-LQDGF it was 4 µM. In addition, the Kd with FITC-β-Ala-β-Ala-NALGG is 0.79 µM; with FITC-β-Ala-β-Ala-FDGFM, 10.8 µM; in assay [5], 1.3 µM; in [6], 6.2 µM.
Regarding GST (from UniProt P08515), the dissociation constant (Kd) in assay [7] was 0.33 µM.
On to “GST-Abl2 SH2 domain fusion protein (from UniProt P42684 173-263) (domain or fragment)”, for which the Kd in the assay with FITC-β-Ala-β-Ala-LQDGF came to 4.6 µM.
Take Ubp-M BUZ (from UniProt Q9Y5T5): the dissociation constant Kd in assay [8] is 15.9 µM.
Consider HDAC6 BUZ (from UniProt Q9UBN7), for which the Kd with ubiquitin (Homo sapiens) was 0.06 µM.

The values above are taken from PMC3005221.
